Experimental data as given in patent US20230147840A1 (Chugai, published 2023).
Positions count from the first letter of the chain named. Each block holds one binder with its values, some of them ahead of it.

Columns and labels:
Human CD3eg linker [1] = biological target: T1, Human CD3eg linker (human); test: SPR Biacore 8K, 25 C; reference xGPC3/DualAE05-xSG1350kSG1349hV11
T1 construct: Single-chain soluble construct; also called recombinant human CD3
T1 chain: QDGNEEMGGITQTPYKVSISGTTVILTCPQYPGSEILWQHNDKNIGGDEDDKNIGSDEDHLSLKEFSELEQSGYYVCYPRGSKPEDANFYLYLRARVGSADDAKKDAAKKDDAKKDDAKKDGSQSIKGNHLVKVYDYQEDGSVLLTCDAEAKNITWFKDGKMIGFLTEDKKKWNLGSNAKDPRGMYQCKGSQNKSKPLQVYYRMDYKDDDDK
Procedure: (§1) Binding affinity of Dual-Ig antibodies to human CD3 were assessed at 25 degrees C. using Biacore 8K instrument (GE Healthcare). Anti-human Fc (GE Healthcare) was immobilized onto all flow cells of a CM4 sensor chip using amine coupling kit (GE Healthcare). Antibodies were captured onto the anti-Fc sensor surfaces, then recombinant human CD3 or CD137 was injected over the flow cell. All antibodies and analytes were prepared in ACES pH 7.4 containing 20 mM ACES, 150 mM NaCl, 0.05% Tween 20, 0.005% NaN₃. Sensor surface was regenerated each cycle with 3M MgCl₂. […] CD137 binding affinity assay was conducted in same condition except assay temperature was set at 37 degrees C.
This is caused by faster off rate in FAST-Ig construct. […] This is caused by faster off rate in FAST-Ig construct.

Human CD3eg linker [2] = biological target: T1, Human CD3eg linker; test: SPR Biacore 8K, Ab captured on anti-human Fc, CD3 as analyte, 25 C
Procedure: as §1

[3] = biological target: T2, Human CD137 extracellular domain (ECD) (human); test: SPR Biacore 8K, Ab captured on anti-human Fc, CD137 as analyte, 37 C
T2 construct: also called Human CD137 ECD; recombinant human CD137
Procedure: as §1

Human CD3eg linker [4] = biological target: T1, Human CD3eg linker; test: SPR (Biacore T200, 25 degrees C), in-tandem blocking assay; antibody captured on anti-human Fc, 8 µM hCD3eg injected as analyte
Procedure: (§2) Biacore in-tandem blocking assay was performed to characterize non-simultaneous binding of Dual-Ig Ab for both CD3 and CD137. The assay was performed on Biacore T200 instrument (GE Healthcare) at 25 degrees C. in ACES pH 7.4 buffer containing 20 mM ACES, 150 mM NaCl, 0.05% Tween 20, 0.005% NaN₃. Anti-human Fc (GE Healthcare) was immobilized onto all flow cells of a CM4 sensor chip using amine coupling kit (GE Healthcare). Antibodies were captured onto the anti-Fc sensor surfaces, then 8 micro M CD3 was injected over the flow cell followed by an identical injection of 8 micro M CD137 in the presence of 8 micro M CD3. An increased of binding response for second injection was indicative of binding to different paratopes therefore a simultaneous binding interactions; whereas no enhancement or decreased of binding response for the 2nd injection was indicative of binding to the same or overlapping or adjacent paratopes, therefore a non-simultaneous binding interactions.

[5] = biological target: T2, Human CD137 extracellular domain (ECD); test: SPR (Biacore T200, 25 degrees C), in-tandem blocking assay; antibody captured on anti-human Fc, first saturated with 8 µM hCD3eg, then 8 µM hCD137 injected in the presence of 8 µM hCD3eg
Procedure: as §2

T2 sequence (chain, as listed by the source limits assumed): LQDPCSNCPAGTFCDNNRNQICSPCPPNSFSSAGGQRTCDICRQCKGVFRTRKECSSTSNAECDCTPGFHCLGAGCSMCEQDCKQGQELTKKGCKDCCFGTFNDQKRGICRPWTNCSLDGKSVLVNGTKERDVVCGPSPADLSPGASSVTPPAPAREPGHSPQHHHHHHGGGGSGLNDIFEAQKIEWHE

- fold weaker binding affinity than CrossMab xSG1350 (Human CD3eg linker [1]): ~3 fold
- Kd (Human CD3eg linker [2]): 806 nM
- koff (Human CD3eg linker [2]): 0.0611 s⁻¹
- kon (Human CD3eg linker [2]): 75900 M⁻¹ s⁻¹
- Kd [3]: 38 nM
- koff [3]: 0.000506 s⁻¹
- kon [3]: 13300 M⁻¹ s⁻¹
B1: GPC3KE/DualAE05EK-SG1363k1365hV11 (bispecific antibody, V domains shown)
VH 1: QVQLVQSGAEVKKPGASVTVSCKASGYTFTDYEMHWIRKPPGEGLEWIGAIDGPTPDTAYSEKFKGRVTLTADKSTSTAYMELSSLTSEDTAVYYCTRFYSYTYWGQGTLVTVSS
VL 1: DIVMTQSPLSLPVTPGEPASISCRSSQPLVHSNRNTYLHWYQEKPGQAPRLLIYKVSNRFSGVPDRFSGSGSGTDFTLKISRVEAEDVGVYYCGQGTQVPYTFGQGTKLEIK
VH 2: QVQLVESGGGLVQPGRSLRLSCAASGFKFSNVWFHWVREAPGKGLEWVAQIKDYYNAYAAYYAPSVKGRFTISRDDSKNSIYLQMNSLKTEDTAVYYCHYVHYASASTLLPAEGVDAWGQGTTVTVSS
VL 2: DIVMTQSPLSLPVTPGEPASISCQPSQEVVHMNRNTYLHWYQKKPGQAPRLLIYKVSNRFPGVPDRFSGSGSGTDFTLKISRVEAEDVGVYYCAQGTSHPFTFGQGTKLEIK
notes: 1+1 tri-specific, FAST-Ig format; Full chains not tied by name

- binding result (Human CD3eg linker [4]): binds
- binding result [5]: binds
B2: xGPC3/DualAE15-xSG1350k1349hV11 (bispecific antibody, V domains shown)
VH 1: B1 VH 1 with K39Q
VL 1: B1 VL 1 with E43Q
VH 2: B1 VH 2 with E39Q, A60G, A63H, S105A, T108Q
VL 2: B1 VL 2 with K43Q
notes: 1+1 tri-specific, CrossMab format; Full chains not tied by name; also called xGPC3DualAE15-xSG1350kSG1349hV11; xGPC3/DualAE15-xSG1350kSG1349hV11
